Results as given in JP2014141434A (dated 2014).

Experiments:
[1] = biological target: T1, N末端FLAG−tag付加型ヒトROBO4細胞外領域ドメイン欠損体 hROBO4−225 (human, UniProt Q8WZ75 225-1007); assay: flow cytometry, transfected HEK293 cells
T1 construct: On HEK293 cells; also called pCI−FLAG−hROBO4−225; pCI−hROBO4−225
T1 sequence: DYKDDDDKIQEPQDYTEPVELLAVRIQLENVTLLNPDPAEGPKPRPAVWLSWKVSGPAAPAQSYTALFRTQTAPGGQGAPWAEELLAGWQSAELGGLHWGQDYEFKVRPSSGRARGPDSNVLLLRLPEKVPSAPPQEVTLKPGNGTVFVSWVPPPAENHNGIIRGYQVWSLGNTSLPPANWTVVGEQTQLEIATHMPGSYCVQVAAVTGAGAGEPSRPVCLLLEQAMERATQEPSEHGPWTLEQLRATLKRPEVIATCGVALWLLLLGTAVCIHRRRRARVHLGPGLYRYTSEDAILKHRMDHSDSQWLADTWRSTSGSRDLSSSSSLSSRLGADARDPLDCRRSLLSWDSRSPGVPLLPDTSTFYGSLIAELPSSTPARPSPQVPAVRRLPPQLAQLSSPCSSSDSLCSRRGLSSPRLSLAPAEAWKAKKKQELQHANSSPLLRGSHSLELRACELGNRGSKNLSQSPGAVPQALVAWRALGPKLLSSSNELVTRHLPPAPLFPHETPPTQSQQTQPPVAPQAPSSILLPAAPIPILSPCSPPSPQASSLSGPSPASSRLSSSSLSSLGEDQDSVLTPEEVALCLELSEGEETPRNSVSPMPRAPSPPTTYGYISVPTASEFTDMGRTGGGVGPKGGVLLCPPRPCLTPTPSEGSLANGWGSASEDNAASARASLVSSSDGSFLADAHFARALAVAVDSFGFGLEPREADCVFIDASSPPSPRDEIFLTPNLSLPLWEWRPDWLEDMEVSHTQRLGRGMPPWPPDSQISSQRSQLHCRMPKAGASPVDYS

[2] = biological target: T2, N末端FLAG−tag付加型ヒトROBO4細胞外領域ドメイン欠損体 hROBO4−341 (human, UniProt Q8WZ75 341-1007); assay: flow cytometry, transfected HEK293 cells
T2 construct: On HEK293 cells; also called pCI−FLAG−hROBO4−341; pCI−hROBO4−341
T2 sequence: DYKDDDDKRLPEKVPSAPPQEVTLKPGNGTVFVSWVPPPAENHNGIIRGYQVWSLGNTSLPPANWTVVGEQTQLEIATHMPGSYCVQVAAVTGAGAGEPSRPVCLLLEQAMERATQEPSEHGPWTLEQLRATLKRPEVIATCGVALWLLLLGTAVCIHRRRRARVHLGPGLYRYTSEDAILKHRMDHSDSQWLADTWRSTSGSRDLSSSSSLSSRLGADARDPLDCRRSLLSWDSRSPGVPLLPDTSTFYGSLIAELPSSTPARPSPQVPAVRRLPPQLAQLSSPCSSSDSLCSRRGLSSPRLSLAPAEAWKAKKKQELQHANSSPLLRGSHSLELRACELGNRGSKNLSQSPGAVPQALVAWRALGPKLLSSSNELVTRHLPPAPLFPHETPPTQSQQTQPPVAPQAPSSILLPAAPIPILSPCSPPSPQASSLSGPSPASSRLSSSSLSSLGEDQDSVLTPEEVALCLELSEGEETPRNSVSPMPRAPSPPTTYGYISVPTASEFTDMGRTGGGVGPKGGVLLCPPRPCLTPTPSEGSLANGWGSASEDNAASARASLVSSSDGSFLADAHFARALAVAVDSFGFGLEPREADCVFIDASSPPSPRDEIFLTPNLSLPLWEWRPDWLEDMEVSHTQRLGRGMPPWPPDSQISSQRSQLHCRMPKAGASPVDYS

binding result [1]: no binding (tested: 10 μg/mL) | binding result [2]: no binding (tested: 10 μg/mL)
B1: 抗ROBO4マウスモノクローナル抗体 MAb1 (antibody, V domains shown)
VH: EVQLVESGGGLVKPGGSLKLSCAASGFTFSTYAMSWVRQTPEKRLEWVATISNGGTYTYYPDSVKGRFTISRDNAENTLYLQMSSLRSEDTAMYFCARLIYYDYLDYWGHGTTLTVSS
VL: DAVMTQTPLSLPVSLGDQASISCRSSQSLENSNGNTYLNWYFQKPGQSPQLLIYRVSNRFSGVLDRFSGSGSGTDFTLKISRVEAEDFGVYFCLQVTHVPWTFGGGTKLEIKR
notes: Mouse IgG1 (gamma 1) / kappa from a hybridoma; The constant regions are not in the listing; also called MAb1
